This is an account of results in patent US20180335433A1, “COMPOSITIONS TARGETING PKC-THETA AND USES AND METHODS OF TREATING PKC-THETA PATHOLOGIES, ADVERSE IMMUNE RESPONSES AND DISEASES” (La Jolla Institute for Allergy and Immunology, priority 2011, published 2018).

The subject of test [1] is CD28 response element (RE/AP) reporter gene. The test is described as follows: RE/AP luciferase reporter assay in MCC-specific T hybridoma cells. The format is cell-based. As to the method: (§1) (FIG. 6A) OT-II CD4^+ T cells were infected with retrovirus expressing Myc-tagged V3 domain, V3 mutated at P330/1/4/6A (V3-4PA), or PR motif-deleted V3 (V3-ΔPR). Infected cells (green) were harvested, stimulated, and fixed. Conjugates were stained with anti-Myc plus a secondary Alexa 555-coupled antibody (orange), and anti-PKCθ plus a secondary Alexa 647-coupled antibody (red). Cells were analyzed as in FIG. 1A. (FIG. 6B) Quantitative analysis of the results shown in (FIG. 6A) from 30-50 T-APC conjugates. ** p<0.05. (FIG. 6C) MCC-specific T hybridoma cells were cotransfected with indicated vector, together with RE/AP-Luc and β-Gal reporter plasmids. Cells were stimulated and analyzed as in FIG. 1C. […] Cytokine-producing cells were analyzed by intracellular staining 8 h after restimulation. […] Normalized luciferase activity was determined in triplicates.
(§2) The CD28 response element (RE/AP)- or NFAT-luciferase (Luc) reporter genes have been described (Coudronniere, N. et al. Proc Natl Acad Sci USA 97, 3394-3399 (2000)). […] The cells were the lysed and Luc activity was quantitated and normalized to the activity of a cotransfected β-galactosidase (β-Gal) reporter gene.
(§3) To determine whether ectopic V3 expression also interfered with PKCθ-dependent TCR/CD28 signaling, the effects of V3 on activation of reporter genes and on T cell differentiation into effector Th cells were analyzed. […]
On the technique in general: A reporter such as luciferase makes a cellular process visible.

Test [2] deals with NFAT reporter gene. The test is described as follows: NFAT luciferase reporter assay in MCC-specific T hybridoma cells. Type of test: cell-based. As for the experimental part: as §1, §2, §3
Test [3] concerns B6 CD4+ T cells, Th17 differentiation. The test is described as follows: In vitro Th17 differentiation of retrovirally transduced CD4+ T cells. Type of test: cell-based, mouse. The settings on record: ectopic expression, Th17 differentiation conditions. As for the experimental part: as §1, with “triplicates. […]” for “triplicates.”
Investigators have reported that the Th2 and Th17 immune responses are compromised in PKCθ^−/− mice, whereas the Th1 response remains relatively intact (Marsland, B. J. et al. J Exp Med 200, 181-189 (2004); Salek-Ardakani, S. et al. J Immunol 173, 6440-6447 (2004); Salek-Ardakani, S., et al. J Immunol 175, 7635-7641 (2005)). Therefore, ectopic expression of V3 was analyzed for inhibition of Th differentiation. […]

For test [4], the system named is Naïve CD4+ T cells from B6 mice, Treg (FoxP3+) cells. Briefly: In vitro Treg (FoxP3+) differentiation of retrovirally transduced CD4+ T cells. Type of test: cell-based, mouse. The settings on record: Treg-polarizing conditions (IL-2+TGFβ), GFP+FoxP3+ cells. As to the method:
Naïve CD4+ T cells from B6 mice stimulated with anti-CD3 plus anti-CD28 mAbs and differentiated in vitro under Treg-polarizing conditions (IL-2+TGFβ) were retrovirally transduced with empty pMIG vector, or with the indicated PKCθ V3 vectors. Transduced (GFP+) cells were sorted and FoxP3+ cells were analyzed by intracellular staining.
Naïve CD4^+ T cells from B6 mice stimulated with anti-CD3 plus anti-CD28 mAbs and differentiated in vitro under Treg-polarizing conditions (IL-2+TGFβ) were retrovirally transduced with empty pMIG vector, or with the indicated PKCθ V3 vectors. Transduced (GFP+) FoxP3+ cells were analyzed by intracellular staining 8 hours after restimulation. Right panels represent cumulative data showing percentage of GFP+FoxP3+ cells by intracellular staining.

Setting [5] is: coexpressed at increasing levels together with WT PKCθ.

B1: V3 domain: amino acid 282-379 of human PKCθ with N-terminal Myc tag, expressed from pMIG retroviral vector (protein)
chain: GINQKLMAEALAMIESTQQARCLRDTEQIFREGPVEIGLPCSIKNEARPPCLPTPGKREPQGISWESPLDEVDKMCHLPEPELNKERPSLQIKLKIED
modifications: left off: small tags and cut ends
notes: amino acid 282-379 of human PKCθ with N-terminal Myc tag, expressed from pMIG retroviral vector
As to B1, the “inhibition of RE/AP reporter gene activity stimulated by WT PKCθ” value in test [1] (setting [5]) is “inhibited in a dose-dependent manner”. Also, the “activation of RE/AP reporter gene” value in test [1] (expression of the V3 alone) is given as “did not activate”. The “inhibition of NFAT reporter gene activity stimulated by WT PKCθ” value in test [2] (setting [5]) is “inhibited in a dose-dependent manner”. Further, the “activation of NFAT reporter gene” value in test [2] (expression of the V3 alone) is “did not activate”. Besides, in test [3], the “inhibition of Th17 differentiation” value was approximately 75%. Besides, the “promotion of Treg differentiation” value in test [4] is recorded as approximately 4 fold.
